Where a chain is given by its changes, count along the chain named.
T1: RAP1(22-152), recombinant His6-tagged RAP1 protein representing amino acids 22-152 (P. falciparum 3D7, UniProt Q9U429 22-152)
T1 construct: contains the RAP1 rhoptry signal (22-55); Amplified from 3D7 genomic DNA, cloned NcoI/XhoI into pET28b upstream of the His6 tag; not shown: His6, C-terminal, kept
T1 sequence: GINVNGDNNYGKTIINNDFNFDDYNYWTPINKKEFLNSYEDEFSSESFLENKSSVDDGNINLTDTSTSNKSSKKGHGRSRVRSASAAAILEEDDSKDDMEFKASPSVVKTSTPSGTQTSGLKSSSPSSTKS

T2: RAP1(22-152) mutant, aspartate 39, 43 and 44 to arginine (P. falciparum 3D7, UniProt Q9U429 22-152, aspartate 39 to arginine | aspartate 43 to arginine | aspartate 44 to arginine)
T2 construct: not shown: His6, C-terminal, kept
T2 sequence: T1 sequence with D18R, D22R, D23R

T3: RAP1(22-152) mutant, residues 40, 42 and 45 to glycine (P. falciparum 3D7, UniProt Q9U429 22-152, aromatic residue 40 to glycine | aromatic residue 42 to glycine | aromatic …)
T3 construct: not shown: His6, C-terminal, kept
T3 sequence: T1 sequence with F19G, F21G, Y24G

T4: RAP1(22-152) mutant, aspartate 39, 43 and 44 to alanine (P. falciparum 3D7, UniProt Q9U429 22-152, aspartate 39 to alanine | aspartate 43 to alanine | aspartate 44 to alanine)
T4 construct: not shown: His6, C-terminal, kept
T4 sequence: T1 sequence with D18A, D22A, D23A

B1: RAMAE, RAMA-GST fusion protein representing amino acids 759-840 (domain or fragment)
chain: DNKFVAHKKREKSISPHSYQKVSTKVQNKENMENKEKKQLINDEAAMTAEELVELENTEDVNTPTMVETEEIDFDENGNKSS
notes: rhoptry associated membrane antigen (RAMA), P. falciparum, amino acids 759-840; source: E. coli BL21 (DE3), purified (glutathione resin)
B2: RAMAE1, RAMA-GST fusion protein representing amino acids 759-798 (domain or fragment)
chain: DNKFVAHKKREKSISPHSYQKVSTKVQNKENMENKEKKQL
notes: rhoptry associated membrane antigen (RAMA), P. falciparum, amino acids 759-798; Amplified from P. falciparum cDNA and cloned into pGEX-4T-1; source: E. coli BL21 (DE3), purified (glutathione resin)

Key:
Test in all cases: pull-down; 100 ug His6-tagged RAP1 recombinant protein immobilised on TALON resin, incubated O/N at 4 C with purified GST-fusion proteins in pull-down buffer (50 mM Na2HPO4, 75 mM NaCl, 0.1% Triton X-100, 5 mM imidazole, pH 7.4); eluted with imidazole; Coomassie gel and immunoblot with anti-GST
Conditions in all cases: both partners purified
[1] = biological target: T1, RAP1(22-152), recombinant His6-tagged …
[2] = biological target: T2, RAP1(22-152) mutant, aspartate 39, 43 …
[3] = biological target: T3, RAP1(22-152) mutant, residues 40, 42 …
[4] = biological target: T4, RAP1(22-152) mutant, aspartate 39, 43 …

| Binder | binding result [1] | binding result [2] | binding result [3] | binding result [4] |
| --- | --- | --- | --- | --- |
| B1 | binds | binds | binds | binds |
| B2 | binds | – | – | – |
